We go through 54 variants from the RNAGym collection of RNA variant scans (doi:10.7554/elife.80360).

B1: Twister Ribozyme (parent)
chain: AACACUGCCAAUGCCGGUCCCAAGCCCGGAUAAAAGUGGAGGGGGCGG

This data set covers variants of B1. Briefly: self-cleavage, relative activity (ratio to wild type); higher = more cleavage; co-transcriptional.
On to AACACUGUCAAUGCCGGUCCCAAGCCCCGAUAAAAGUGGAGGGGGCGG [C8U G28C], for which the self-cleavage came out at 0.469. For the variant AACACUGCCAAUGCCGGUCCCAAGCCCGGAUAAAGCUGGAGGGGGCGG [A35G G36C], the self-cleavage came out at 0.491.

In the case of AACACUGCGAAUGCCGGUCCCUAGCCCGGAUAAAAGUGGAGGGGGCGG [C9G A22U], the self-cleavage is 0.187. For the variant AACACUGCCAAUGCCGGUCCCAUUCCCGGAUAAAAGUGGAGGGGGCGG [A23U G24U], the self-cleavage is 0.0593.

On to AACACUGCCAAUGCCGCUCCCAAGCCUGGAUAAAAGUGGAGGGGGCGG [G17C C27U], for which the self-cleavage is 0.0804.

In the case of AACACUGCCAAUGCCGGUCCCAAGCCCGAAUAAAAGUGGAGGGGGCGC [G29A G48C], the self-cleavage is 1.1.

As to AACACUGCAAAUGCCGUUCCCAAGCCCGGAUAAAAGUGGAGGGGGCGG [C9A G17U], the self-cleavage turned out to be 0.0549. With AACACUGCAAAUGCUGGUCCCAAGCCCGGAUAAAAGUGGAGGGGGCGG [C9A C15U], the self-cleavage is 0.567. The same measure for AACACUGCCAAUGCCGGUCCCAGGCCUGGAUAAAAGUGGAGGGGGCGG [A23G C27U]: 0.14. For the variant AACACUGCCAAUGCCGGUCCCAAGCCCGGGUAAAAGUGGAGGGAGCGG [A30G G44A], the self-cleavage stood at 0.85. Then AACACUGCCAAUGCCGGGCCCAAGCCAGGAUAAAAGUGGAGGGGGCGG [U18G C27A], with 0.0641.

Take AACACUGCCAAUGCCGGUCCGAACCCCGGAUAAAAGUGGAGGGGGCGG [C21G G24C]: the self-cleavage was 0.109. The same measure for AACACUGCCAAUGCCGGUUCCAAGCCCGGAUAAAAGUGGUGGGGGCGG [C19U A40U]: 0.133; for AACACUGCCAAUGCCGGUCCCAAGCCCGGAUAAAAGUGGAGGCGGAGG [G43C C46A]: 0.111. The same measure for AACACCGCCAAUACCGGUCCCAAGCCCGGAUAAAAGUGGAGGGGGCGG [U6C G13A]: 0.0845; for AACACUGCCAAUGCCGGUCCCAAGCACGGAUAAAAGUGGAGGGAGCGG [C26A G44A]: 0.562; for AACACUGCCAAUGGCGGUCCCAAGCCCGGAUCAAAGUGGAGGGGGCGG [C14G A32C]: 0.12. The same measure for AACACUGCCAAUGCCGGUCCCACGCCCGGAUAAAGGUGGAGGGGGCGG [A23C A35G]: 0.0714.

As to AACACUGCCAACGCCGGUUCCAAGCCCGGAUAAAAGUGGAGGGGGCGG [U12C C19U], the self-cleavage worked out at 0.951. The same measure for AACACUGCCAAUGCCGGUCCCAAGCCCGGAUAAAAGUGGAGGGUUCGG [G44U G45U]: 0.922; for AACACUGCCAAUGCCGGUCCGAAGCCCGGAUAAACGUGGAGGGGGCGG [C21G A35C]: 0.0454. AACACUGCCAAUGCCGGGCCCAAGCCCGGAUAAAAGUGGAGGGGGCCG [U18G G47C]: the self-cleavage stood at 0.0806. ACCACUGCCAAUGCCGGUCCCAAGCCCGGAUAAAAGUCGAGGGGGCGG [A2C G38C]: the self-cleavage is 0.0461. Take AACACUGCUAAUGCCGGUCCCAAGCCCGGAUAAACGUGGAGGGGGCGG [C9U A35C]: the self-cleavage was 0.636. The same measure for AACACUGCCAAUGCCGGUCCCAAGCCCGGACGAAAGUGGAGGGGGCGG [U31C A32G]: 0.997; for AACACUGCCAGUGCCGGUCCCAAGCCCGGAUAAAAGUGGAGGGGGCUG [A11G G47U]: 0.861; for AACACUGACAAUGCCGGUCCCAAGCCCGGGUAAAAGUGGAGGGGGCGG [C8A A30G]: 0.567. Then UACACUGCCAAUGCCGGUCCCAGGCCCGGAUAAAAGUGGAGGGGGCGG [A1U A23G], with 0.0754. Then AAUACUGCCAAUGCUGGUCCCAAGCCCGGAUAAAAGUGGAGGGGGCGG [C3U C15U], with 0.335; and AACACUGCCAAUGCCGGUCCCAAGCCCGGAUCAAAGUGGAGGGGGUGG [A32C C46U], with 0.863; and AACAAUGCCAAUGCCGGUCCCAAGGCCGGAUAAAAGUGGAGGGGGCGG [C5A C25G], with 0.0605. Regarding AACAAUGCCAAUGCCGGUCCCAAGCCCGGAUAAAAGUGGAGGGGACGG [C5A G45A], the self-cleavage is 0.532. Then AACACUGCCAAUGCCGUUCCCAAGUCCGGAUAAAAGUGGAGGGGGCGG [G17U C25U], with 0.204. For the variant AACACUGCCCAUGCCGGUCCGAAGCCCGGAUAAAAGUGGAGGGGGCGG [A10C C21G], the self-cleavage worked out at 0.0689.

Consider AACAGUGCCAAUGCCGGUCCCAAGCCCCGAUAAAAGUGGAGGGGGCGG [C5G G28C], for which the self-cleavage is 0.212. Then AACACUGCCAAUGCCGGUCCCAAGCCCGGCUGAAAGUGGAGGGGGCGG [A30C A32G], with 0.821; and AACACUGCCAAUGCCGGUCCCAAGCCCGUCUAAAAGUGGAGGGGGCGG [G29U A30C], with 1.06; and AAGACUGCCAAUGCCGGUCCCAAGCCCGGAUAAAAGUGGAGGGGGCGG [C3G], with 0.541. Take AACACCGCCAAUGCCGGUCCCAAGCCCGGAUAAAAAUGGAGGGGGCGG [U6C G36A]: the self-cleavage stood at 0.136. For ACCACUGCCAAUGCCGGUUCCAAGCCCGGAUAAAAGUGGAGGGGGCGG [A2C C19U], the self-cleavage is 0.0609.

Consider AGCACUGCCAAUGCCGGUCGCAAGCCCGGAUAAAAGUGGAGGGGGCGG [A2G C20G], for which the self-cleavage came out at 0.0997.

Consider AACACUGCCAAUGCCGGUCCCAAGACCGGAUAAAAGUGGACGGGGCGG [C25A G41C], for which the self-cleavage turned out to be 0.106. On to AACACUGCCAAUGCCGGUCCCAAGCCCGGAUAAAAGAGGAGGGGGCGG [U37A], for which the self-cleavage is 0.883. The same measure for AACACUGCCAAUGCCGGUCCCAAGCCCGGAUAAAACUGGAGGCGGCGG [G36C G43C]: 0.0794. In the case of AACACUGCCAAUGCCGGUGCCAAGCCCGGAUAAAAGUGGAGUGGGCGG [C19G G42U], the self-cleavage amounted to 0.0912. Turning to AACCCUGCCAAUGCCGGUCCCAAGCCCGGAUAAAAGUGUAGGGGGCGG [A4C G39U], the self-cleavage was 0.0723. The same measure for AACACUGCCAAUGCCGGUCCCAAGCCCCGAUAAAAGUGGCGGGGGCGG [G28C A40C]: 0.179; for AACACUGUCAAUGCCGGUCCCAAGCCCGGAUAAAAGUGGAGGGGGCGA [C8U G48A]: 0.45. On to AAUACUGCCAAUGCCGGUCCUAAGCCCGGAUAAAAGUGGAGGGGGCGG [C3U C21U], for which the self-cleavage came out at 0.0611.

As to AACACCGCCAAUGCCGGUCCCAAGCCCGGAUAAAAGUGAAGGGGGCGG [U6C G39A], the self-cleavage was 0.273.

As for AACACUGCCAAUGCCGGUCCCAACCCCGGAUAAAAGAGGAGGGGGCGG [G24C U37A], the self-cleavage was 0.107.

Consider AACACUGCCAAUGCCGGUCCCGAGCGCGGAUAAAAGUGGAGGGGGCGG [A22G C26G], for which the self-cleavage was 0.0488. Then AACACUGACAAUGCUGGUCCCAAGCCCGGAUAAAAGUGGAGGGGGCGG [C8A C15U], with 0.365; and AACACUGCUAAUGCCGGUCCCAAGCCCGGAUAAAAGUGGAGGGGGCGG [C9U], with 0.754.
